In test [1] the target is squid hemocyanin (Todarodes pacificus) (Todarodes pacificus). The test is described as follows: SAXS; Hc after high hydrostatic pressure at 200 MPa for 20 min; Kratky-type camera; aggregation numbers calculated with SAXS Quant 2.0.
Test [2] has the same target. The test is described as follows: SAXS; Hc after high hydrostatic pressure at 400 MPa for 20 min; Kratky-type camera; aggregation numbers calculated with SAXS Quant 2.0.
The target is the same in test [3]. The test is described as follows: SAXS; untreated control Hc (0.1 MPa, 25 °C) in solution; Kratky-type camera; aggregation numbers calculated with SAXS Quant 2.0.
For test [4] the target is unchanged. The test is described as follows: SAXS; Hc after high hydrostatic pressure at 600 MPa for 20 min; Kratky-type camera; aggregation numbers calculated with SAXS Quant 2.0.

Take “squid hemocyanin (Todarodes pacificus) (natural protein)”: the 〈Nagg〉G (Guinier aggregation number) was 11.9 in test [1], 14.2 in test [2], 10.2 in test [3] and 16 in test [4]. Further, the 〈Nagg〉Q (average aggregation number) in test [1] was 12.7; in test [2], 14.4; in test [3], 9.3; in test [4], 15.2.
